This is an account of results in paper PMC7072329 (Biomolecules, 2020).

Where no end group is shown, it is not given here. [ ]: non-standard residue; d: D form. The star is where a group is joined. Kyn = Nc1ccccc1C(=O)C[C@H](N)C(=O)O; NMeF = CN[C@@H](Cc1ccccc1)C(=O)O; NHCH2CH2OH = OCCN* Bounds are passed on as bounds.

The chains are these.
B1: Peptide K6 (peptide)
chain: Y[dA]GF[Kyn]-NH2
B2: Peptide KA1 (peptide)
peptide: Y[dA]G[NMeF][NHCH2CH2OH]-{kynurenic acid (ester on OH)}
notes: the order of couplings in Scheme 1 (ethanolamine-kyna ester, Boc-N-Me-Phe, Boc-Gly, Boc-DAla, Boc-Tyr) agrees; the drawn structure is in Scheme 1; also called kyna-containing peptide; source: synthetic peptide (solution phase synthesis, RP-HPLC purified, TFA salt)
B3: Peptide K3 (peptide)
chain: YPF[Kyn]-NH2
modifications: N-terminus assumed
SMILES: NC(=O)[C@H](CC(=O)c1ccccc1N)NC(=O)[C@H](Cc1ccccc1)NC(=O)[C@@H]1CCCN1C(=O)[C@@H](N)Cc1ccc(O)cc1
B4: Peptide K4 (peptide)
chain: Y[dA]GF[Kyn]-OMe
B5: Peptide K5 (peptide)
chain: Y[dA]GF[Kyn]-OH
B6: Peptide K2 (peptide)
chain: YP[Kyn]F-NH2

T1 sequence (P33535 whole entry): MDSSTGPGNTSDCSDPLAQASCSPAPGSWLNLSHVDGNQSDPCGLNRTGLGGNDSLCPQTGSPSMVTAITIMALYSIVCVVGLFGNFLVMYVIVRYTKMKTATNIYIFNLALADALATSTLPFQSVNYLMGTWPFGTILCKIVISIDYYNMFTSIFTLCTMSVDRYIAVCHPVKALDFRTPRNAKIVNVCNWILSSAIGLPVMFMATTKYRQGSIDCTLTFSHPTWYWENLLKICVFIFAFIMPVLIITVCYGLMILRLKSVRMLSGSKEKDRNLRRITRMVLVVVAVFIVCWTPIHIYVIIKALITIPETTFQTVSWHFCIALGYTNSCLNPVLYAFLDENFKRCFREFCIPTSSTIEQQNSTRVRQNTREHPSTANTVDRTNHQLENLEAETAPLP

One assay has as its target T1, μ-opioid receptor (rat (endogenous in rat brain), UniProt P33535 1-398). Briefly: cell-based or functional assay.
Conditions: not given
In the case of B1, the “Log EC50 of [^35S]GTPγS binding (G-protein activation), rat brain membrane homogenates” value was -5.98.

The next assay concerns the target T1, μ-opioid receptor. Briefly: cell-based or functional assay.
Conditions: not given
This is another data set of the same source.
For B1, the “logEC50 of [^35S]GTPγS binding as told in the conclusions (differs from Table 2)” value is -5.6.

The target in another assay is T2, δ-opioid receptor (rat (endogenous in rat brain), UniProt P33533 1-372).
T2 construct: δ-opioid receptor, rat (Wistar), endogenous in brain membrane homogenate; defined by displacement of [^3H]Ile^5,6Delt II; In membranes, not on intact cells; also called DOR; source: endogenous, rat brain membrane homogenate
T2 sequence (P33533 whole entry, stated change not applied): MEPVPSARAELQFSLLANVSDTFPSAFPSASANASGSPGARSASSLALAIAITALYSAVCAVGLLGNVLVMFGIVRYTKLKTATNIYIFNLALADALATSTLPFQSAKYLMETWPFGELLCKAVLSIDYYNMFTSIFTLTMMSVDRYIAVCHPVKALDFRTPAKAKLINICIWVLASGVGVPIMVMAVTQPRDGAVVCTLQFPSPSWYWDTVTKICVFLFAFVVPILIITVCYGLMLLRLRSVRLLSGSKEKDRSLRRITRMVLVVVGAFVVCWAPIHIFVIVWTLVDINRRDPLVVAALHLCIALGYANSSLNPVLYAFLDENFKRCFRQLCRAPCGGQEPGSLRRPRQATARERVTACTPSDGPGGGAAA
Briefly: radioligand binding. Particulars: one partner purified.
The Ki is a measure of affinity in units of concentration, obtained from inhibition or displacement. In the case of B2, affinity was put at a Ki of 555 nM.

Regarding B3, the Ki was determined as 159 nM.

Turning to B1, the Ki was 32.5 nM.

Regarding B4, the Ki is 31.2 nM.

For B5, the affinity corresponds to a Ki of 94.4 nM. Against the preceding molecule, the Ki is about 3-fold higher.

For a further assay, the target named is T1, μ-opioid receptor. Briefly: radioligand binding; displacement of [^3H]DAMGO from rat brain membrane homogenate by unlabelled ligand (10^-10 to 10^-5 M); 50 mM Tris-HCl pH 7.4, 35 °C, 45 min; non-specific binding with 10 μM naloxone; IC50 converted into Ki by Cheng-Prusoff, one site competition fit. The conditions noted are these: one partner purified.
For B6, the Ki worked out at 1.39 nM.

Regarding B3, the Ki was 197 nM.

Turning to B1, the affinity, expressed as Ki, was 1.84 nM.

In the case of B4, the Ki is 2.29 nM.

The molecule B5 showed a Ki of 9.11 nM.

In the next assay the target is T3, κ-opioid receptor (guinea pig (endogenous in guinea pig …, UniProt P41144 1-380)).
T3 construct: κ-opioid receptor, guinea pig, endogenous in brain membrane homogenate; defined by displacement of [^3H]HS665; In membranes, not on intact cells; also called KOR; k-opioid receptor; source: endogenous, guinea pig brain membrane homogenate
T3 sequence (P41144 whole entry): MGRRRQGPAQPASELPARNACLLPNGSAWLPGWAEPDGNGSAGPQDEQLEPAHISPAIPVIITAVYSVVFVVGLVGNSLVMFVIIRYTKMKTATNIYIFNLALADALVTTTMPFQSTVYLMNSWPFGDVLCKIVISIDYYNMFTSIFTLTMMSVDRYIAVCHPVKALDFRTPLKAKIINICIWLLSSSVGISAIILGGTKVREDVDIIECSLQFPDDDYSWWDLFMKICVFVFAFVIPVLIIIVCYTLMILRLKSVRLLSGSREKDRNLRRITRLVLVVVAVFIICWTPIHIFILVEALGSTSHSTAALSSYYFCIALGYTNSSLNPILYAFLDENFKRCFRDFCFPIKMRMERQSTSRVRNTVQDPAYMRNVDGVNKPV
Briefly: radioligand binding; displacement of [^3H]HS665 from guinea pig brain membrane homogenate by unlabelled ligand (10^-10 to 10^-5 M); 50 mM Tris-HCl pH 7.4, 25 °C, 30 min; non-specific binding with 10 μM HS665; IC50 converted into Ki by Cheng-Prusoff. The conditions noted are these: one partner purified.
For B2, the Ki was over 10000 nM.

For B3, the Ki was over 10000 nM.

The molecule B1 displayed an inhibition constant (Ki) of 128 nM.

On to B4, for which the Ki is over 10000 nM.

Take B5: the Ki was over 10000 nM.
